{"source": "patent US20250368978A1", "about": "“SQUALENE HOPENE CYCLASE VARIANTS FOR PRODUCING SCLAREOLIDE” (INTERNATIONAL FLAVORS & FRAGRANCES INC., priority 2022, published 2025)", "assay": "SHC variant screening reactions: conversion of HFA to sclareolide by freeze-dried whole cells, GC analysis", "format": "biochemical, Gluconobacter morbifer", "settings": "for Fold improvement (sclareolide production): 10 mg/mL HFA, 100% enzyme loading, based on % peak area, relative to V45L+Q54E+I278T+T326S variant, no metal ions; for Fold improvements (sclareolide production): 20 mg/mL HFA, 50% enzyme loading, relative to initial mutant", "procedure": "SHC Variant Enzyme Expression. Wild-type and the GmSHC variants of Table 5 were individually cloned into pET28a(+). These DNA constructs were transformed into Lemo21 (DE3) E. coli and plated onto agar plates containing Kanamycin. These were incubated overnight at 37° C. A single bacterial colony was picked and used to inoculate 10 mL LB+Kanamycin in a 50 mL falcon tube. This primary culture was incubated overnight at 37° C. with agitation. These cultures (10 mL) were used to inoculate 1L LB+Kanamycin in a shake flask, which was subsequently incubated at 37° C. at 180 rpm for about 4 hours. Protein expression was then induced with the addition of 0.4 mM IPTG and 0.2 mM L-rhamnose. The incubator temperature was lowered to 25° C. and the cultures further incubated at 180 rpm overnight. The next day, the cultures were centrifuged at 4000 rpm for 10 minutes and the supernatant discarded. Cell pellets were resuspended in 0.1 M Potassium phosphate buffer pH 7.4 and exposed to 1 round of freeze/thawing before lyophilization and then use in the reaction assay.\nSHC Variant Screening Reactions. Sodium citrate buffer 0.2 M, pH 5 was prepared and 500 μL of this buffer was added to freeze-dried whole cells of each variant (from 1 L shake flask fermentation of E. coli transformed with desired variant plasmid). The results were obtained with an enzyme loading of 50% (w/w). Subsequently, HFA (20 mg/mL) was added to the buffer/enzyme mix. The reactions were incubated at 25° C. with agitation for 72 hours. To stop the reaction and extract the products, a 2X volume of 3:2, heptane: isopropanol was added to each reaction. These were then incubated at 37° C. for 30 minutes with agitation to mix thoroughly. The reactions were centrifuged for 10 minutes at 4000 rpm to pellet any cellular material. The upper organic layer was then removed and placed in a clean gas chromatography (GC) vial.\nGC Analysis Method. A GC analytical method was used to detect each of the starting materials and products used in the screening reactions. Due to the volume of samples generated, a fast method was developed with a run time of only 4.5 minutes.\nNo metal ions were included in the reaction.\nFurther analysis was conducted to identify one or more optimal SHC enzymes. In particular, substrate loading was increased to 20 mg/mL and incubation with a reduced enzyme loading (50%).", "data": [{"molecule": "V45L + Q54E + V222Q + R249R + I278T + T326S: GmSHC variant with these substitutions relative to SEQ ID NO: 2 (protein, Gluconobacter morbifer) MSPADISTKSSSFQRLDNMLPEAVSSACDWLIDQQKPDGHWVGPLESNACMEAEWCLALWFLGQEDHPLRPRLAQALLEMQREDGSWGIYVGADHGDINTTVEAYAALRSMGYAADMPIMAKSAAWIQQKGGLRNVRVFTRYWLALIGEWPWDKTPNLPPEIIWLPDNFIFSIYNFAQWARATMMPLTILSARRPSRPLLPENRLDGLFPEGRENFDYELPQKGEEDLWGRFFRAADKGLHSLQSFPVRRFVPREAAIRHVIEWIIRHQDADGGWGGTQPPWIYGLMALSVEGYPLHHPVLAKAMDALNDPGWRRDKGDASWIQASNSPVWDTMLAVLALHDAGAEDRYSPQMDKAIGWLLDRQVRVKGDWSIKLPDTEPGGWAFEYANDKYPDTDDTAVALIALAGCRHRPEWRERDIEGAISRGVNWLLAMQSSSGGWGAFDKDNNRSILTKIPFCDFGEALDPPSVDVTAHVLEAFGLLGISRNHPSVQKALAYIRSEQERNGAWFGRWGVNYVYGTGAVLPALAAIGEDMTQPYIVRACDWLMSVQQENGGWGESCASYMDINAVGHGVATASQTAWALIGLLAAKRPKDREAIARGCQFLIERQEDGSWTEEEYTGTGFPGYGVGQAIKLDDPSLPDRLLQGAELSRAFMLRYDLYRQYFPVMALSRARRMMKEDASAAA", "values": [{"measurement": "Fold improvement (sclareolide production)", "result": 3.9, "unit": "Fold"}, {"measurement": "Fold improvements (sclareolide production)", "result": 30.3, "unit": "Fold"}]}, {"molecule": "V45L + Q54E + R249R + I278T + T326S: GmSHC variant with these substitutions relative to SEQ ID NO: 2; R249R is a silent mutation (protein, Gluconobacter morbifer, R249R is a silent mutation) MSPADISTKSSSFQRLDNMLPEAVSSACDWLIDQQKPDGHWVGPLESNACMEAEWCLALWFLGQEDHPLRPRLAQALLEMQREDGSWGIYVGADHGDINTTVEAYAALRSMGYAADMPIMAKSAAWIQQKGGLRNVRVFTRYWLALIGEWPWDKTPNLPPEIIWLPDNFIFSIYNFAQWARATMMPLTILSARRPSRPLLPENRLDGLFPEGRENFDYELPVKGEEDLWGRFFRAADKGLHSLQSFPVRRFVPREAAIRHVIEWIIRHQDADGGWGGTQPPWIYGLMALSVEGYPLHHPVLAKAMDALNDPGWRRDKGDASWIQASNSPVWDTMLAVLALHDAGAEDRYSPQMDKAIGWLLDRQVRVKGDWSIKLPDTEPGGWAFEYANDKYPDTDDTAVALIALAGCRHRPEWRERDIEGAISRGVNWLLAMQSSSGGWGAFDKDNNRSILTKIPFCDFGEALDPPSVDVTAHVLEAFGLLGISRNHPSVQKALAYIRSEQERNGAWFGRWGVNYVYGTGAVLPALAAIGEDMTQPYIVRACDWLMSVQQENGGWGESCASYMDINAVGHGVATASQTAWALIGLLAAKRPKDREAIARGCQFLIERQEDGSWTEEEYTGTGFPGYGVGQAIKLDDPSLPDRLLQGAELSRAFMLRYDLYRQYFPVMALSRARRMMKEDASAAA", "values": [{"measurement": "Fold improvement (sclareolide production)", "result": 4.2, "unit": "Fold"}, {"measurement": "Fold improvements (sclareolide production)", "result": 7, "unit": "Fold"}]}]}
